Assay results as given in PMC5798830, “Hexons from adenovirus serotypes 5 and 48 differentially protect adenovirus vectors from neutralization by mouse and human serum” (PLoS ONE, 2018).

Key:
[1] = molecular target: T1, human coagulation factor X (human); assay: SPR; Biacore T200; about 1,200 reference units of Ad5.0, Ad5:H48 or Ad48 particles immobilised on a CM5 chip; FX as analyte at four concentrations (max 42 nM for Ad5.0 and Ad5:H48, 212 nM for Ad48); 10 mM HEPES, 150 mM NaCl, 1 mM CaCl2, 0.5 mM MgCl2, 0.1% BSA, 0.05% polysorbate 20, pH 7.4; 50 uL/min; global fit to a 1:1 kinetic model; conditions: both partners purified
T1 construct: Probably plasma zymogen with Gla residues in the light chain (surmised); also called human FX; FX; source: bought: Haematologic Technologies, Inc

[2] = molecular target: T2, mouse coagulation factor X (mouse); assay: as above; conditions: both partners purified
T2 construct: also called mouse FX; FX; source: bought: Haematologic Technologies, Inc

B1: Ad5.0 vector (adenovirus serotype 5 vector with a wild-type Ad5 capsid) (complex)
chain: ATPSMMPQWSYMHISGQDASEYLSPGLVQFARATETYFSLNNKFRNPTVAPTHDVTTDRSQRLTLRFIPVDREDTAYSYKARFTLAVGDNRVLDMASTYFDIRGVLDRGPTFKPYSGTAYNALAPKGAPNPCEWDEAATALEINLEEEDDDNEDEVDEQAEQQKTHVFGQAPYSGINITKEGIQIGVEGQTPKYADKTFQPEPQIGESQWYETEINHAAGRVLKKTTPMKPCYGSYAKPTNENGGQGILVKQQNGKLESQVEMQFFSTTEATAGNGDNLTPKVVLYSEDVDIETPDTHISYMPTIKEGNSRELMGQQSMPNRPNYIAFRDNFIGLMYYNSTGNMGVLAGQASQLNAVVDLQDRNTELSYQLLLDSIGDRTRYFSMWNQAVDSYDPDVRIIENHGTEDELPNYCFPLGGVINTETLTKVKPKTGQENGWEKDATEFSDKNEIRVGNNFAMEINLNANLWRNFLYSNIALYLPDKLKYSPSNVKISDNPNTYDYMNKRVVAPGLVDCYINLGARWSLDYMDNVNPFNHHRNAGLRYRSMLLGNGRYVPFHIQVPQKFFAIKNLLLLPGSYTYEWNFRKDVNMVLQSSLGNDLRVDGASIKFDSICLYATFFPMAHNTASTLEAMLRNDTNDQSFNDYLSAANMLYPIPANATNVPISIPSRNWAAFRGWAFTRLKTKETPSLGSGYDPYYTYSGSIPYLDGTFYLNHTFKKVAITFDSSVSWPGNDRLLTPNEFEIKRSVDGEGYNVAQCNMTKDWFLVQMLANYNIGYQGFYIPESYKDRMYSFFRNFQPMSRQVVDDTKYKDYQQVGILHQHNNSGFVGYLAPTMREGQAYPANFPYPLIGKTAVDSITQKKFLCDRTLWRIPFSSNFMSMGALTDLGQNLLYANSAHALDMTFEVDPMDEPTLLYVLFEVFDVVRVHRPHRGVIETVYLRTPFSAGNATT
Kd [1]: 0.82 nM
Kd [2]: 0.42 nM
